pIC50: −log10 of the molar value.

The experiment has as its target T1, purified mannose receptor (Homo sapiens, UniProt P22897).
T1 construct: purified mannose receptor (Lennartz, M. R. et al., J Biol Chem (1987) 262:9942-9944 (supra)) is added; from tissue
T1 sequence (P22897 19-1456): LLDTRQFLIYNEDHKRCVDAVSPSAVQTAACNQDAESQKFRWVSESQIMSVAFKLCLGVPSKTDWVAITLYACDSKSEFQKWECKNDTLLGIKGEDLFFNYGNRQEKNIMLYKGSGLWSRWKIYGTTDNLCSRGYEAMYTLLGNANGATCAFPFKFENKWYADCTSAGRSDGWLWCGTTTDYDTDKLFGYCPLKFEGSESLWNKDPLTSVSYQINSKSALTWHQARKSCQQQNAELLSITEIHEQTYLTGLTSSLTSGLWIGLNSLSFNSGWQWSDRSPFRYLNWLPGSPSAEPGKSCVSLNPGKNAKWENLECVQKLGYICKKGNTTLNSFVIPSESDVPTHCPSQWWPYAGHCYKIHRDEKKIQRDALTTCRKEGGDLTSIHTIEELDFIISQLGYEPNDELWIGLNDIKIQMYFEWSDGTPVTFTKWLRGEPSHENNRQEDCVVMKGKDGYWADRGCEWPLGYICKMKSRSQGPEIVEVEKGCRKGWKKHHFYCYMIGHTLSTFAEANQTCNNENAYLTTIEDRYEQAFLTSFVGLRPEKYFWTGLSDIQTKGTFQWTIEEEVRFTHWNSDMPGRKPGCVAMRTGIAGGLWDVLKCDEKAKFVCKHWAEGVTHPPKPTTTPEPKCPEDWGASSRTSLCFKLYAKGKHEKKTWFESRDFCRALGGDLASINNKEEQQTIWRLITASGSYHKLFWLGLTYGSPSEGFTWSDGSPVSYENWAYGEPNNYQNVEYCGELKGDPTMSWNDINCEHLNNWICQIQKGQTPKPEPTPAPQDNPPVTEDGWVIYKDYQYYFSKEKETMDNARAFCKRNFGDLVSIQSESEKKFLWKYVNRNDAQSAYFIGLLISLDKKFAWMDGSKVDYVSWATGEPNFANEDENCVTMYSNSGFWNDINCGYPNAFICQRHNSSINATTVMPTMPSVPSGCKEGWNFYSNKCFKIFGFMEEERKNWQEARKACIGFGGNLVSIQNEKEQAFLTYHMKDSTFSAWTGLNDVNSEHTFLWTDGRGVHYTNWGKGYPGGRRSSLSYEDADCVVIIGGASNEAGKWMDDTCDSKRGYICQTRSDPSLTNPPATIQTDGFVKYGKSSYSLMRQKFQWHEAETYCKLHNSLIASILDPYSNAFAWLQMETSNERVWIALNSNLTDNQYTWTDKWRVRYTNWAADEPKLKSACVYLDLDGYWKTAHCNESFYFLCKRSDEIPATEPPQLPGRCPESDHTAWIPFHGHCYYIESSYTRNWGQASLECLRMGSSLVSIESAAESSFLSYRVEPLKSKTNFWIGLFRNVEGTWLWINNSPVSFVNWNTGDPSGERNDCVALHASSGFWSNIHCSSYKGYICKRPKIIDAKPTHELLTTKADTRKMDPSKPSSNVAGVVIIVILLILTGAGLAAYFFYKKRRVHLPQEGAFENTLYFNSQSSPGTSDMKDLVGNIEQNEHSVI
Description: Competition of 125I-mannose-BSA binding to isolated mannose receptor on beads. Particulars: for pIC50: 125I-mannose-BSA 2 nM, 37° C., 15 minutes, read-out: IC50 (concentration effecting 50% inhibition of 125I-mannose-BSA binding to mannose receptor). On the procedure:
The assay measures the ability of the test compound to inhibit the binding of ^125 I-mannose-BSA, prepared as described, to isolated mannose receptor. To prepare solid supported receptor protein A-sepharose (IgG-SORB) is incubated with rabbit anti-human mannose receptor antiserum for 20 minutes at room temperature. The beads are then washed by sedimentation 3 times in Tris-buffered saline containing 1% Triton X-100, 1% BSA and 15 mM CaCl2 (assay buffer). The beads are then suspended in an assay buffer and purified mannose receptor (Lennartz, M. R. et al., J Biol Chem (1987) 262:9942-9944 (supra)) is added, followed by incubation for 30 minutes at 37° C. The beads are washed again three times to remove unbound receptor.
In the assay, the receptor-linked beads are resuspended in a total volume of 100 μL assay buffer containing 0.1 μCi ^125 I-mannose-BSA (2 nM) prepared according to (Stahl, P. et al., Cell (1980) (supra)) with and without test compound. Following incubation at 37° C. for 15 minutes, the beads are diluted in ice cold buffer and washed three times in the same assay buffer as the dissociation or receptor/ligand at 4° C. is quite slow. The cpm of ^125 I-mannose-BSA remaining in the […] is determined, and the percent inhibition of test compound at various concentrations calculated. The IC50 is then the concentration which effects a 50% inhibition in binding. Nonspecific binding of ligand to beads is determined by adding excess yeast mannan to parallel assays and accounted for in the calculations.
The ^125 I-mannose-BSA used in the assay binds to receptor beads with a Kd of 2 nM as determined in the foregoing assay using unlabeled mannose-BSA as test compound.
The competition was conducted as set forth above, using as test compounds, mannose, oligosaccharides containing 3, 5, 7, 9 or 13 mannose residues linked α1, 4 (Man9 and Man13, respectively) and two proteins known to contain mannose residues, β-glucuronidase and invertase. ^125 I-mannose-BSA at 2 nM was used in the assay and mannose-BSA was used in a control. Varying concentrations of test compound were used to determine the IC50 for each material.
The compounds synthesized in Example 2 were tested in the assay system described in Example 1 above under the conditions therein set forth. FIGS. 2 and 3 show the results. The IC50 (concentration of test compound which effects 50% inhibition of binding of labeled mannose-BSA under the conditions of the assay) can be read from the figures.

As to “Invertase: protein known to contain mannose residues”, the pIC50 was 7.00 to 8.00. Besides, the “ability to inhibit the binding of 125I-mannosyl-BSA after digestion with pronase” value (digested with pronase) was “destroyed”.

As to `O=C[C@@H](O)[C@@H](O)[C@H](O)[C@H](O)CO` [Mannose, mannose], the “fold less effective than the mannose oligosaccharides in inhibiting 125I-mannose-BSA binding” value (relative to Man9/Man13, FIG. 1) is given as “at least 1,000 fold”.

Man9: the pIC50 is roughly 4.70.

For the origin of these results see patent US5432260A, “High affinity mannose receptor ligands” (Washington University, priority 1991, dated 1995).
